In the RNAGym collection of RNA variant scans (doi:10.7554/elife.80360):

B1: Twister Ribozyme (parent)
chain: AACACUGCCAAUGCCGGUCCCAAGCCCGGAUAAAAGUGGAGGGGGCGG

Variants of: B1
Assay: self-cleavage, relative activity (ratio to wild type); higher = more cleavage; co-transcriptional

First: AACACUUCCAAUGCCGGUCCCAAGCCCGGAUAAAAGUGGUGGGGGCGG
Second: AACACUGCCAAUCCCGGUCCCAAGCCCGAAUAAAAGUGGAGGGGGCGG
The self-cleavage of the first is lower: 0.072 for the first, 0.411 for the second.

Going from AACACUGCCACUGCCGGUCCCAAGCCCAGAUAAAAGUGGAGGGGGCGG to AACCCUCCCAAUGCCGGUCCCAAGCCCGGAUAAAAGUGGAGGGGGCGG, the self-cleavage falls from 0.656 to 0.0903.

Compared with AACACUGCCAAUGCCGGUCCCAAGCCGGGAUAAAAGUGGAGGGGGCGU, AACACUGCCAAUGCCUAUCCCAAGCCCGGAUAAAAGUGGAGGGGGCGG is lower in self-cleavage: 0.0985 for the first, 0.0957 for the second.

Going from AACACUGCCAAUCCAGGUCCCAAGCCCGGAUAAAAGUGGAGGGGGCGG to AACACUGCCAAUGCUGGUCCCAAGCCCGGAUAAAAGCGGAGGGGGCGG, the self-cleavage rises from 0.0696 to 0.295.

First: AACACUGCUAAUGCCGGUCCCAAUCCCGGAUAAAAGUGGAGGGGGCGG
Second: AACACUGCCAAUGCCGGUACCAAGCCCGGAUUAAAGUGGAGGGGGCGG
The self-cleavage of the first is lower: 0.0861 for the first, 0.189 for the second.

First: AACACUGCCAAUUCCGGUCCCAAGCCCGGAUAAAAGUGGAGGUGGCGG
Second: AACACUGCCAAUGCCGGUCCCAAGCCCGGAUAAAAGGGCAGGGGGCGG
The self-cleavage of the first is higher: 0.155 for the first, 0.143 for the second.

First: AACACUGCCAAUGCCGGUCCCAAGCCCGAAUAAAAGAGGAGGGGGCGG
Second: AACACUGGCAAUGCCGGUCCCAAGUCCGGAUAAAAGUGGAGGGGGCGG
The self-cleavage of the first is higher: 0.569 for the first, 0.112 for the second.

Compared with AACACUGCCAAUGCCGGUCCCAAUCCCGGAUAAAAGUGGAGGGGGCGG, AACACUUCCAAUGCCGGUCCCAAGCCCGUAUAAAAGUGGAGGGGGCGG is lower in self-cleavage: 0.128 for the first, 0.0673 for the second.

Going from AACAAUGCCAAUCCCGGUCCCAAGCCCGGAUAAAAGUGGAGGGGGCGG to AACACUGCCAAUGCCGGUCCCAAGCCCGGAUAAAAAUGGGGGGGGCGG, the self-cleavage rises from 0.105 to 0.144.

First: AACACUGCUAAUGCCGGUCCCAAGCCCGGAUAAAAGUGGAGAGGGCGG
Second: AACACUGCCAAUACCGGUCCCAAGCGCGGAUAAAAGUGGAGGGGGCGG
The self-cleavage of the first is higher: 0.153 for the first, 0.0899 for the second.

Compared with AACACAGCCAAUGCCGGUCCCAAGCCCGGAUCAAAGUGGAGGGGGCGG, AACACUGGCAAUGCCGGUCCCAAGCGCGGAUAAAAGUGGAGGGGGCGG is lower in self-cleavage: 0.753 for the first, 0.12 for the second.

First: CACACUGCAAAUGCCGGUCCCAAGCCCGGAUAAAAGUGGAGGGGGCGG
Second: AACACUGCCAAUGCCGGUCCCAAGCCCGGUCAAAAGUGGAGGGGGCGG
The self-cleavage of the first is lower: 0.221 for the first, 1.02 for the second.

Going from AACACUGCCAAUGACGGUCCCAAGCCCGGAUAAAAGUGGAGGGGGCGC to AACACUGCCAAUGCCGGUCCGAAGCCCGGAUAAAAUUGGAGGGGGCGG, the self-cleavage falls from 1.04 to 0.0888.

Compared with AACACUGACAAUGCCGGUCCCAUGCCCGGAUAAAAGUGGAGGGGGCGG, AAGACUGCCAAUGCCGGUCCCAAGCCCGGAUUAAAGUGGAGGGGGCGG is higher in self-cleavage: 0.0553 for the first, 0.593 for the second.

Compared with AACACUGCUAAUGCCGGUCCCAAGCGCGGAUAAAAGUGGAGGGGGCGG, AACACUGCCAAUGCCGGACCCAAGCCCGGAUAAAAGUCGAGGGGGCGG is higher in self-cleavage: 0.0629 for the first, 0.448 for the second.

Going from AACACUGCCAAUGCCGGUCCCAAGCCGGUAUAAAAGUGGAGGGGGCGG to AACACUUCGAAUGCCGGUCCCAAGCCCGGAUAAAAGUGGAGGGGGCGG, the self-cleavage falls from 0.0759 to 0.0496.

Going from AACACGGCCAAUGCCCGUCCCAAGCCCGGAUAAAAGUGGAGGGGGCGG to CACACUGCCAAUGCCGGUCCCAAGACCGGAUAAAAGUGGAGGGGGCGG, the self-cleavage falls from 0.156 to 0.148.

Going from AACACUGCCAAUGCCGGUCCCAAGCCCGGAUACAAGUGGAGGGGGCCG to AACACUGCCAAUGCCGCUCCCAAGCCCGGACAAAAGUGGAGGGGGCGG, the self-cleavage falls from 0.274 to 0.115.

First: AACACUGCCAAUGCCGGUCCCAAGCCCGGAUAAAAGUGGAGGGAGGGG
Second: AACACUGCCAAUGCCGGUCCCAAGCCCGGAGAAAAGUGGAGGGGGCGG
The self-cleavage of the first is lower: 0.895 for the first, 0.933 for the second.

First: AACACUGCCAAUGCCGGUCCCAAGCCCGGUUAAAAGUGUAGGGGGCGG
Second: AACACUGCCAAUGCCGGUCCCAAGCCCGGAUAUAAGUGGAGGGGUCGG
The self-cleavage of the first is lower: 0.212 for the first, 0.843 for the second.

First: AACACUGCCAAUGCCGGUCCCAAGUACGGAUAAAAGUGGAGGGGGCGG
Second: AACACUGCCAAAGCCGGUCCCAAGCCCGGAUAACAGUGGAGGGGGCGG
The self-cleavage of the first is lower: 0.0893 for the first, 0.36 for the second.

First: AACACUGCCAAUGCGGGUCCCAAGCCCGGAUCAAAGUGGAGGGGGCGG
Second: AACACUGCCAAUGCCGCUCCUAAGCCCGGAUAAAAGUGGAGGGGGCGG
The self-cleavage of the first is higher: 0.112 for the first, 0.0868 for the second.

Going from AACACUGCCGAUGCCGGUCCCAAGCCCGGAUAAAAGUGGAGGGGUCGG to AACACUGCCCAUGCCGGUCCCGAGCCCGGAUAAAAGUGGAGGGGGCGG, the self-cleavage falls from 0.883 to 0.256.

Going from AACACUGCCAAUGCCGGCCCCAAGCCCGGAUAAAAGUGGAGGGAGCGG to AACACUGCCAAUGCCGGUCCCAAGCCCGGAUAGAAGUGGAGGGCGCGG, the self-cleavage rises from 0.714 to 0.752.

Compared with AACAAUGCCAAUGCCGGUCCCAAGCCCGGAGAAAAGUGGAGGGGGCGG, AACACUGCCAAUGCCGGUACCAAGCCCGGAUAAAAGUGGAGGGGACGG is lower in self-cleavage: 0.524 for the first, 0.196 for the second.

First: AACACUGCCAAUGCCGGUCGCAAGCCCGGAUAAAAGUGGACGGGGCGG
Second: AACACUGCCAAUGCAGGUCCCAAGCCCCGAUAAAAGUGGAGGGGGCGG
The self-cleavage of the first is lower: 0.0754 for the first, 0.757 for the second.

Going from AACACUGCCAAUGCCGGUACCAAGCCCGAAUAAAAGUGGAGGGGGCGG to AACACUGCCAAUGCCGGUCCCAAGCCAGGAUAAGAGUGGAGGGGGCGG, the self-cleavage falls from 0.27 to 0.139.
